Laboratory results published in the supplement of paper PMC7877785.
± gives the uncertainty stated by the source.

Assay: self-splicing fitness, log relative to wild type (ln ratio); higher = more splicing; Tetrahymena group I intron in knt gene, E. coli kanamycin selection, DiMSum; sequences stand for … in CUCUCU…GGAGGGAAAAGUUAUCAGGCAUGCACCUGGUAGCUAGUCUUUAAACCAAUAGAUUGCAUCGGUUUAAAAGGCAAGACCGUCAAAUUGCGGGAAAGGGGUCAACAGCCGUUCAGUACCAAGUCUCAGGGGAAACUUUGAGAUGGCCUUGCAAAGGGUAUGGUAAUAAGCUGACGGACAUGGUCCUAACCACGCAGCCAAGUCCUAAGUCAACAGAUCUUCUGUUGAUAUGGAUGCAGUUCACAGACUAAAUGUCGGUCGGGGAAGAUGUAUUCUUCUCAUAAGAUAUAGUCGGACCUCUCCUUAAUGGGAGCUAGCGGAUGAAGUGAUGCAACACUGGAGCCGCUGGGAACUAAUUUGUAUGCGAAAGUAUAUUGAUUAGUUUUGGAGUACUCGUGGUCG
Outline: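 The eight P1ex-region nucleotides of an intron in the knt kanamycin-resistance gene on pET-22b(+) were all randomised and the library put into E. coli BL21(DE3). Six replicate transformations were grown overnight at 37°C or 30°C on LB agar with or without 25 μg/mL kanamycin, together with 100 μg/mL carbenicillin, 50 μM IPTG and 0.2% rhamnose. Colonies were pooled and amplicon-sequenced on an Illumina HiSeq 2500. Fitness from DiMSum is the error-weighted combination of wild-type-normalised replicate fold changes, kanamycin over none.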

Sequence	self-splicing fitness (ln) (30 °C)	self-splicing fitness (ln) (37 °C)
AAAAAGCAAUAUUACGAACU	-0.488 ± 0.07	-0.079 ± 0.087
AAAAAGCAAUAUUACGAAUA	-1.42 ± 0.1	-0.458 ± 0.095
AAAAAGCAAUAUUACGACAG	-1.17 ± 0.066	-0.774 ± 0.088
AAAAAGCAAUAUUACGAGUC	-3.46 ± 0.22	-1.28 ± 0.19
AAAAAGCAAUAUUACGAUGC	-1.66 ± 0.091	-0.868 ± 0.11
AAAAAGCAAUAUUACGCACG	-1.4 ± 0.094	-0.508 ± 0.14
AAAAAGCAAUAUUACGCCAC	–	-2.91 ± 0.47
AAAAAGCAAUAUUACGCCCA	-0.382 ± 0.12	-0.253 ± 0.16
AAAAAGCAAUAUUACGCUGG	-1.73 ± 0.11	-0.618 ± 0.13
AAAAAGCAAUAUUACGGCGU	-0.321 ± 0.078	0.208 ± 0.098
AAAAAGCAAUAUUACGGGGG	-3.27 ± 0.17	-2.76 ± 0.18
AAAAAGCAAUAUUACGGUAG	-3.38 ± 0.21	-1.45 ± 0.15
AAAAAGCAAUAUUACGGUUC	-2.7 ± 0.18	-1.81 ± 0.21
AAAAAGCAAUAUUACGUAAU	-1.4 ± 0.063	-0.916 ± 0.085
AAAAAGCAAUAUUACGUACG	-1.1 ± 0.055	-0.101 ± 0.076
AAAAAGCAAUAUUACGUAGU	-2.1 ± 0.076	-1.69 ± 0.091
AAAAAGCAAUAUUACGUAUC	-2.37 ± 0.089	-1.5 ± 0.12
AAAAAGCAAUAUUACGUCCU	0.148 ± 0.065	0.294 ± 0.079
AAAAAGCAAUAUUACGUGAU	-2.07 ± 0.072	-0.588 ± 0.09
AAAAAGCAAUAUUACGUGUA	-1.78 ± 0.089	-1.33 ± 0.085
AAAAAGCAAUAUUACGUGUG	-1.57 ± 0.049	-1.27 ± 0.069
AAACAGCAAUAUUACGAACA	-1.78 ± 0.09	-0.635 ± 0.084
AAACAGCAAUAUUACGAAGA	-2.29 ± 0.12	-1.55 ± 0.11
AAACAGCAAUAUUACGACAA	-0.939 ± 0.095	-0.417 ± 0.11
AAACAGCAAUAUUACGACCC	-0.763 ± 0.11	0.302 ± 0.13
AAACAGCAAUAUUACGACGU	-0.232 ± 0.045	0.39 ± 0.052

Sequence	self-splicing fitness (ln) (30 °C)	self-splicing fitness (ln) (37 °C)
AAACAGCAAUAUUACGAGGG	-3.69 ± 0.15	-2.33 ± 0.15
AAACAGCAAUAUUACGAGUC	-3.55 ± 0.14	-2.38 ± 0.14
AAACAGCAAUAUUACGAUCA	-0.774 ± 0.07	-0.178 ± 0.065
AAACAGCAAUAUUACGAUUA	-1.16 ± 0.092	-0.343 ± 0.094
AAACAGCAAUAUUACGAUUC	-2.04 ± 0.1	0.0665 ± 0.091
AAACAGCAAUAUUACGCCCC	-1.63 ± 0.15	-0.801 ± 0.19
AAACAGCAAUAUUACGCCCG	-1.35 ± 0.27	-0.868 ± 0.32
AAACAGCAAUAUUACGCUAC	-3.84 ± 0.2	-3.56 ± 0.24
AAACAGCAAUAUUACGCUAU	-1.87 ± 0.1	-2.23 ± 0.16
AAACAGCAAUAUUACGCUCA	-0.43 ± 0.081	0.168 ± 0.1
AAACAGCAAUAUUACGCUGU	-3.85 ± 0.14	-1.89 ± 0.096
AAACAGCAAUAUUACGGAAC	-3.5 ± 0.16	-4.05 ± 0.28
AAACAGCAAUAUUACGGAGU	-3.77 ± 0.16	-2.53 ± 0.11
AAACAGCAAUAUUACGGCCC	-2.15 ± 0.2	-0.625 ± 0.23
AAACAGCAAUAUUACGGCGU	-0.571 ± 0.053	-0.336 ± 0.063
AAACAGCAAUAUUACGGGGC	-3.85 ± 0.16	-3.51 ± 0.19
AAACAGCAAUAUUACGGGGU	-3.07 ± 0.11	-2.6 ± 0.14
AAACAGCAAUAUUACGUAGU	-1.64 ± 0.054	-1.62 ± 0.077
AAACAGCAAUAUUACGUCGG	-2.8 ± 0.11	-1.13 ± 0.11
AAACAGCAAUAUUACGUCGU	-2.13 ± 0.071	-0.661 ± 0.071
AAACAGCAAUAUUACGUGGA	-3.1 ± 0.14	-1.95 ± 0.1
AAAGAGCAAUAUUACGAAUG	-2.69 ± 0.2	–
AAAGAGCAAUAUUACGACAC	-2.67 ± 0.29	-1.89 ± 0.41
AAAGAGCAAUAUUACGAGAG	-3.36 ± 0.19	-3.42 ± 0.21
AAAGAGCAAUAUUACGAGCA	-2.83 ± 0.39	-2.26 ± 0.42
AAAGAGCAAUAUUACGAGGC	-3.57 ± 0.24	-2.74 ± 0.28

Sequence	self-splicing fitness (ln) (30 °C)	self-splicing fitness (ln) (37 °C)
AAAGAGCAAUAUUACGAUGC	-2.54 ± 0.2	-1.96 ± 0.27
AAAGAGCAAUAUUACGCAAG	-3.4 ± 0.19	-3.51 ± 0.36
AAAGAGCAAUAUUACGCAGU	-3.46 ± 0.2	-1.71 ± 0.17
AAAGAGCAAUAUUACGCGAC	-2.55 ± 0.2	-0.998 ± 0.14
AAAGAGCAAUAUUACGCUCA	–	-0.771 ± 0.37
AAAGAGCAAUAUUACGGAGG	-3.48 ± 0.22	-2.3 ± 0.23
AAAGAGCAAUAUUACGGAUC	-2.89 ± 0.2	-2.56 ± 0.15
AAAGAGCAAUAUUACGGCGA	-1.65 ± 0.22	-1.26 ± 0.3
AAAGAGCAAUAUUACGGGCA	-2.45 ± 0.2	-1.42 ± 0.24
AAAGAGCAAUAUUACGGUGU	-4.54 ± 0.28	-2.87 ± 0.21
AAAGAGCAAUAUUACGUACA	-3.37 ± 0.28	-1.71 ± 0.23
AAAGAGCAAUAUUACGUAUA	-3.45 ± 0.37	-1.89 ± 0.32
AAAGAGCAAUAUUACGUCAA	-3.31 ± 0.18	-2.61 ± 0.19
AAAGAGCAAUAUUACGUCAC	-2.56 ± 0.5	-2.76 ± 0.31
AAAGAGCAAUAUUACGUCGG	-3.89 ± 0.24	-1.71 ± 0.2
AAAGAGCAAUAUUACGUGCG	-2.69 ± 0.12	-1.82 ± 0.13
AAAGAGCAAUAUUACGUGGG	-3.99 ± 0.18	-3.8 ± 0.2
AAAGAGCAAUAUUACGUUCU	-2.77 ± 0.13	-1.72 ± 0.13
AAAGAGCAAUAUUACGUUGC	-3.79 ± 0.39	-1.93 ± 0.23
AAAGAGCAAUAUUACGUUUU	-2.46 ± 0.11	-1.91 ± 0.12
AAAUAGCAAUAUUACGAAGA	-2.26 ± 0.26	-1.1 ± 0.17
AAAUAGCAAUAUUACGACAU	-0.145 ± 0.012	0.051 ± 0.032
AAAUAGCAAUAUUACGACUC	-0.664 ± 0.17	-0.335 ± 0.21
AAAUAGCAAUAUUACGACUG	-0.98 ± 0.12	-0.722 ± 0.18
AAAUAGCAAUAUUACGAGCU	-1.37 ± 0.12	-0.386 ± 0.13
